Article PMC7393112

Substrate: C[C@@H](O)C(=O)O
Test: purified protein
Conditions: DCIP as co-substrate, D-lactate 5-300 µM, pH of the kinetic assay not given (optimum pH 8.75)

B1: OsD-LDH2 (Oryza sativa Japonica Group) (protein)
chain: MARRAAAGLLRRHLGPLAAGETLQARGMYPKQYGAANHAFSRFYSIQGQQRSLYGFRTNVETDDTQQSARMNFEVQKRSFSSAAAHVQRNPAYSVLNSDDVSYFKSILGDSGVVQDEDRVSVANMDWMGKYKGSSQLLLLPKSTAEVSKILSYCNSRRLAVVPQGGNTGLVGGSVPVYDEVIISLGGMDKIITFDNVNGILTCEAGCVLENLSSYVENKGFIMPLDLGAKGSCHIGGNISTNAGGLRFIRYGSLHGSVLGLEVVLADGTVLDMLTTLRKDNTGYDLKHLFIGSEGSLGIVTKIAILTPAKLPSTNVAFLSCNDYISCQKLLLAARRSLGEILSAFEFMDRHCINLAMKYLEGVHNPLPVSPFNFYVLIETTGSDESYDKAKLEAFLLRSMEDGLVADGVIAQDISQASNFWRIREGISEASVKVGAVYKYDLSIPVEKLYDIVEEMRSRVGDMGQVLGYGHLGDGNLHLNILSTKYSDKMLAQIEPFVYEWTSKQRGSISAEHGLGLMKAEKIHYSKSSEAVQLMASIKKLLDPNSILNPYKVLPQSVL
**Q.** Which Km does the source give for B1 here?
**A.** Its Km is 8.045 ± 1.7 µM.

**Q.** And the kcat?
**A.** The kcat was 3.27 s⁻¹.

**Q.** What about the kcat/Km of the same protein?
**A.** The kcat/Km was 407000 M⁻¹ s⁻¹.
